In patent US20210403579A1 (DELINIA, published 2021) one finds Kd, koff and kon data, which are given here for 18 molecules.

T1: Human ST2 (human, UniProt Q01638 19-328, limits assumed)
T1 construct: also called human ST2 protein; Interleukin 1 receptor-like 1
T1 sequence (looked up): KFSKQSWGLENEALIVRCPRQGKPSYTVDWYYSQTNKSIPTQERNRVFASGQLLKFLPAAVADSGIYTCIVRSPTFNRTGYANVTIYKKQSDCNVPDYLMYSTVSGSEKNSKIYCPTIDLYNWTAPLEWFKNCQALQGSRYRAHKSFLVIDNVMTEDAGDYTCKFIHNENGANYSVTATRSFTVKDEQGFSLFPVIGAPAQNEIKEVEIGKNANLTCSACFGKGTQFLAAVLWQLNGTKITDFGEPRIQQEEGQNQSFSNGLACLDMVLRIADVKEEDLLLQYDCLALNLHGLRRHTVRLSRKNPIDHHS

B1: Human ST2 IgG1 Antibody 24 (antibody, V domains shown)
VH: QVQLVQSGAEVKKPGSSVKVSCKASGGTFSSYAISWVRQAPGQGLEWMGGIIPIFGTANYAQKFQGRVTITADESTSTAYMELSSLRSEDTAVYYCAKTPLGRGYGLFDYWGQGTLVTVSS
VL: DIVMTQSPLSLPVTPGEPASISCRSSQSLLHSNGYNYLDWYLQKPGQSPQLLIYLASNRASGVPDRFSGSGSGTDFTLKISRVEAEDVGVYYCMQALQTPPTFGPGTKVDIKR
notes: IgG1; also called ST2 Antibody 24
B2: Human ST2 IgG1 Antibody 28 (antibody, V domains shown)
VH: QVQLVQSGAEVKKPGSSVKVSCKASGGTFGNYGINWVRQAPGQGLEWMGGIIPVFGTTNYAQKFQGRVTITADESTSTAYMELSSLRSEDTAVYYCARGLRYYYGMDVWGQGTTVTVSS
VL: DIVMTQSPLSLPVTPGEPASISCRSSQSLLHSNGYNYLDWYLQKPGQSPQLLIYGASTLQSGVPDRFSGSGSGTDFTLKISRVEAEDVGVYYCMQALQNPLTFGGGTKVEIKR
notes: IgG1; also called ST2 Antibody 28
B3: Human ST2 IgG1 Antibody 30 (antibody, V domains shown)
VH: QVQLVQSGAEVKKPGSSVKVSCKASGYTFTTYGITWVRQAPGQGLEWMGGIIPIFGTANYAQKFQGRVTITADESTSTAYMELSSLRSEDTAVYYCAKLSGSSGSWDYYYYYGMDVWGQGTLVTVSS
VL: B2 VL with G55A, T58N, N99T, L101I, G105Q, G106S, K108R, V109L
notes: IgG1; also called ST2 Antibody 30
B4: Human ST2 IgG1 Antibody 35 (antibody, V domains shown)
VH: QVQLVQSGAEVKKPGASVKVSCKASAYTFTSYGISWLRQAPGQGLEWMGWINPNSGNTGYAHKFQGRVTMTRDTSTSTVYMELSSLRSEDTAVYYCARGGSGWPTWGQGTLVTVSS
VL: DIQMTQSPSSLSASVGDRVTITCQASQDISNYLNWYQQKPGKAPKLLIYGASSLQSGVPSRFSGSGSGTDFTLTISSLQPEDFATYYCQQANTFPFTFGPGTKVDIKR
notes: IgG1; also called ST2 Antibody 35
B5: Human ST2 IgG1 Antibody 33 (antibody, V domains shown)
VH: QVQLVQSGAEVKKPGSSVKVSCKASGDTFDTYAISWVRQAPGQGLEWMGGIIPIFGTANYAQKFQGRVTITADESTSTAYMELSSLRSEDTAVYYCARSRGRGYSYGSGLFDYWGQGTLVTVSS
VL: DIVMTQSPLSLPVTPGEPASISCRSSESLLITNGFNYIDWYLQKPGQSPQLLIYLGSNRAAGVPDRFSGSGSGTDFTLKISRVEAEDVGVYYCMQALQTPITFGQGTKVEIKR
notes: IgG1; also called ST2 Antibody 33
B6: Human ST2 IgG1 Antibody 19 (antibody, V domains shown)
VH: EVQLLESGGGLVQPGGSLRLSCAASGFSFSHAWMSWVRQAPGKGLEWVSVIHSGGSTFYADSVKGRFTISRDNSKNTLYLQMNSLRAEDTAVYYCARIGKGGGFDYWGQGTLVTVSS
VL: DIQMTQSPSSLSASVGDRVTITCRASQDIGSWLAWYQQKPGKAPKLLIYAASSLQSGVPSRFSGSGSGTDFTLTISSLQPEDFATYYCQQSYSTPPTFGQGTKVEIKR
notes: IgG1; also called ST2 Antibody 19
B7: Human ST2 IgG1 Antibody 31 (antibody, V domains shown)
VH: QVQLVQSGAEVKKPGSSVKVSCKASGGTFSTYAFSWVRQAPGQGLEYMGGIIPMFGTANYAQKFQGRVTITADESTSTAYMELSSLRSEDTAVYYCAGERGYGSLDYWGQGTLVTVSS
VL: B6 VL with D28G, S93T, T94F, P96Y, V104L
notes: IgG1; also called ST2 Antibody 31
B8: Human ST2 IgG1 Antibody 23 (antibody, V domains shown)
VH: EVQLLESGGGLVKPGGSLRLSCAASGFTFSSYWMHWVRQAPGKGLEWVSSISSRSSYIYYADSVKGRFTISRDDSKNTLYLQMNSLKTEDTAVYYCAREGNGMDVWGQGTTVTVSS
VL: B6 VL with R24Q, W32Y, A34N, Q89L, P96F, Q100G
notes: IgG1; also called ST2 Antibody 23
B9: Human ST2 IgG1 Antibody 27 (antibody, V domains shown)
VH: QVQLVQSGAEVKKPGASVKVSCKASGYTFTGQYMHWVRQAPGQGLEWMGIINPSGGSTSYAQKFQGRVTMTRDTSTSTVYMELSSLRSEDTAVYYCAGSYYPYYYYGMDVWGQGTTVTVSS
VL: B6 VL with D28N, S31Y, W32F, A34H, T94P, P96L, Q100G
notes: IgG1; also called ST2 Antibody 27
B10: Human ST2 IgG1 Antibody 22 (antibody, V domains shown)
VH: EVQLLESGGGLVQPGGSLRLSCAASGFKFRTFWMNWVRQAPGKGLEWVSVISNGGDATHYADSVKGRFTISRDNSKNTLYLQMNSLRAEDTAVYYCARVDCSGGSCYLGYWGQGTLVTVSS
VL: B6 VL with Q27E, D28S, S31R, W32Y, A34N, A50G, A51T, S53N, Q55E
notes: IgG1; also called ST2 Antibody 22
B11: Human ST2 IgG1 Antibody 32 (antibody, V domains shown)
VH: EVQLLESGGGLVQPGGSLRLSCAASGFTFSNSDMNWVRQAPGKGLEWVSFISSSSGYTYYADSVKGRFTISRDNSKNTLYLQMNSLRAEDTAVYYCARANNNWNFYFDYWGQGTLVTVSS
VL: B6 VL with D28S, G30N, S31N, A50S, S93D, P96I
notes: IgG1; also called ST2 Antibody 32
B12: Human ST2 IgG1 Antibody 34 (antibody, V domains shown)
VH: QVQLVQSGAEVKKPGASVKVSCKASGQTFTDYAINWVRQAPGQGLEWMGWMNPNSGNTGYAQKFQGRVTMTRDTSTSTVYMELSSLRSEDTAVYYCARETLEQQLPFDYWGQGTLVTVSS
VL: B6 VL with D28S, G30S, S53T, S91Y, P95L, P96Y
notes: IgG1; also called ST2 Antibody 34
B13: Human ST2 IgG1 Antibody 36 (antibody, V domains shown)
VH: QVQLVQSGAEVKKPGASVKVSCKASGYTFTSYGISWVRQAPGQGLEWMGWIDPNSGGTNYAQKFQGRVTMTRDTSTSTVYMELSSLRSEDTAVYYCARDDWFSGDLDYWGQGTLVTVSS
VL: B6 VL with D28G, G30D, S53K, S56G, S91G, P96I, E105D
notes: IgG1; also called ST2 Antibody 36
B14: Human ST2 IgG1 Antibody 26 (antibody, V domains shown)
VH: QVQLVQSGAEVKKPGSSVKVSCKASGYTFSDYYMHWVRQAPGQGLEWMGGILPVFGTATYAQKFQGRVTITADESTSTAYMELSSLRSEDTAVYYCARGFGYFDYWGQGTLVTVSS
VL: not shown
notes: IgG1; also called ST2 Antibody 26
B15: Human ST2 IgG1 Antibody 25 (antibody, V domains shown)
VH: QVQLVQSGAEVKKPGSSVKVSCKASGGTFSNYAISWVRQAPGQGLEWMGWISAYNGNTNYAQKFQGRVTMTRDTSTSTVYMELSSLRSEDTAVYYCARSTNALDYWGQGTLVTVSS
VL: DIQMTQSPSSLSASVGDRVTITCRASQGIRSNLDWYQQKPGKAPKLLISIVSNLGSGVPSRFSGSGSGTDFTLTISSLQPEDFATYYCLQHNSNPPTFGGGTKVEIKR
notes: IgG1; also called ST2 Antibody 25
B16: Human ST2 IgG1 Antibody 20 (antibody, V domains shown)
VH: EVQLLESGAEVKKPGSSVKVSCKASGGTFSSYAISWVRQAPGQGLEWMGGIIPIFGTANYAQKFQGRVTITADESTSTAYMELSSLRSEDTAVYYCASGFYSNDLYYYYYMDVWGKGTTVTVSS
VL: DIQMTQSPSSLSASVGDRVTITCRASQSISSWLAWYQQKPGKAPKLLIYDASNLKTGVPSRFSGSGSGTDFTLTISSLQPEDFATYYCQQTYAIPLTFGGGTKVEIKR
notes: IgG1; also called ST2 Antibody 20
B17: Human ST2 IgG1 Antibody 29 (antibody, V domains shown)
VH: QVQLVQSGAEVKKPGASVKVSCKASGGTFTGYFIHWVRQAPGQGLEWMGWMNPNSGNTGYAQKFQGRVTMTRDTSTSTVYMELSSLRSEDTAMYYCAREGQGVVPVDYWGQGTLVTVSS
VL: B16 VL with S52T, K55E, Q89L, T91D, A93N, I94Y, G100Q, G101S
notes: IgG1; also called ST2 Antibody 29
B18: Human ST2 IgG1 Antibody 21 (antibody, V domains shown)
VH: QVQLVQSGAEVKKPGASVKVSCKASGYTFSNHYMHWVRQAPGQGLEWMGWVNPTSGNTGYAQKFQGRVTMTRDTSTSTVYMELSSLRSEDTAVYYCARDLGVTYFDLWGRGTLVTVSS
VL: B16 VL with S28G, D50E, N53H, K55E, Q89L, T91D, A93N, I94Y
notes: IgG1; also called ST2 Antibody 21

Substitutions are numbered along the chain they refer to.

A word on the Kd: it is a measure of binding affinity in units of concentration. A lower Kd goes with tighter binding. What is called koff is the rate constant with which the complex falls apart. Low readings indicate a long-lived complex, high ones a short-lived complex. The term kon denotes the second-order rate constant of association. High values mean fast association, low ones slow association.

In this assay the target is T1, Human ST2. Kind of assay: SPR (Carterra), antibody immobilized, ST2 analyte. On the procedure:
Binding of the reformatted human ST2 antibodies to the human and mouse ST2 proteins was evaluated by surface plasmon resonance (SPR), using a high throughput antibody screening and characterization platform from Carterra (Salt Lake City, Utah).
With B1, the dissociation constant (Kd) is 1200 nM, the koff is 0.055 s⁻¹ and the kon was determined as 45000 M⁻¹ s⁻¹.
Regarding B2, the dissociation constant (Kd) is 426 nM, the koff came out at 0.066 s⁻¹ and the kon was found to be 160000 M⁻¹ s⁻¹.
The matching figures for B3: 155 nM, 0.029 s⁻¹ and 190000 M⁻¹ s⁻¹.
On to B4, for which the dissociation constant Kd came out at 104 nM, the koff was found to be 0.016 s⁻¹ and the kon was 160000 M⁻¹ s⁻¹.
In turn, B5 had a Kd of 529 nM, an off-rate constant (koff) of 0.13 s⁻¹ and an on-rate (kon) of 240000 M⁻¹ s⁻¹.
Consider B6, for which binding was put at a Kd of 113 nM, the koff is 0.062 s⁻¹ and the association rate constant (kon) worked out at 550000 M⁻¹ s⁻¹.
The molecule B7 displayed a dissociation constant Kd of 274 nM, a koff of 0.12 s⁻¹ and a kon of 430000 M⁻¹ s⁻¹.
The molecule B8 returned a Kd of 688 nM, a dissociation rate constant (koff) of 0.1 s⁻¹ and a kon of 150000 M⁻¹ s⁻¹.
Consider B9, for which the dissociation constant Kd was 106 nM, the koff was 0.048 s⁻¹ and the kon was 450000 M⁻¹ s⁻¹.
The matching figures for B10: 90 nM, 0.048 s⁻¹ and 530000 M⁻¹ s⁻¹.
For B11, binding was put at a Kd of 252 nM, the dissociation rate constant (koff) was found to be 0.061 s⁻¹ and the kon came to 240000 M⁻¹ s⁻¹.
For the molecule B12, binding was characterised by a dissociation constant (Kd) of 109 nM, the koff is 0.0011 s⁻¹ and the on-rate constant (kon) stood at 10000 M⁻¹ s⁻¹.
Turning to B13, binding was characterised by a dissociation constant (Kd) of 264 nM, the koff is 0.14 s⁻¹ and the on-rate (kon) amounted to 510000 M⁻¹ s⁻¹.
B14: binding was characterised by a dissociation constant (Kd) of 264 nM, the koff came out at 0.14 s⁻¹ and the kon worked out at 530000 M⁻¹ s⁻¹.
The matching figures for B15: 193 nM, 0.03 s⁻¹ and 150000 M⁻¹ s⁻¹.
In the case of B16, the Kd is 81 nM, the koff came out at 0.065 s⁻¹ and the on-rate (kon) is 810000 M⁻¹ s⁻¹.
With B17, binding was characterised by a dissociation constant (Kd) of 480 nM, the off-rate (koff) was 0.0065 s⁻¹ and the kon came to 14000 M⁻¹ s⁻¹.
Molecule B18 yielded a dissociation constant Kd of 805 nM, an off-rate (koff) of 0.017 s⁻¹ and a kon of 21000 M⁻¹ s⁻¹.
